In patent US20260234738A1 (Regeneron, published 2026):
Where a chain is given by its changes, count along the chain named.

B1: mAb10923 (antibody, V domains shown)
VH: QVQLVQSGAEVKKPGASVKVSCKASGYTFINYYIHWVRQAPGQGLEWMGWINPNSGGTNYAQKFQGRVTMTRDTSISTAYMELSRLRSDDTAVYYCAIITIFGVVTWFDPWGQGTLVTVSS
VL: not shown
B2: mAb10984 (antibody, V domains shown)
VH: EVQLVESGGGLVQPGGSLRLSCAASGLTVNRNYMSWVRQAPGKGLEWVSLIYSGGSTYYADSVKGRFTISRDNSKNTLYLQMNSLRLEDTAVYYCARGELGIPYGMDVWGQGTTVTVSS
VL: QSVLTQPPSVSAAPGQKVTISCSGSSSNIGNNYVSWYQQLPGTAPKLLIYDNNKRPSGIPDRFSGSKSGTSATLGITGLQTGDEADYYCGTWDSSLSAGVFGGGTKLTVLG
B3: mAb10939 (antibody, V domains shown)
VH: EVQLVESGGGLVQPGGSLRLSCAASGLTVSSNYMNWVRQVPGKGLEWVSVIYSGGSKFYVDSVKGRFTISRHNSKNTLYLQMNSLRPEDTAVYYCTRDAQYYGMDVWGQGTTVTVSS
VL: DIQMTQSPSSLSASVGDRVTITCRASQSISTYLHWYQQKPGEAPKLLIYAASSLQSGVPSRFSGSGSGTDFTLTISSLQPEDFATYYCQQSYSTPPEIFGQGTKLEIKR
B4: mAb10932 (antibody, V domains shown)
VH: EVQLVESGGGLVQSGGSLRLSCAASGLTVSSNYMSWVRQAPGKGLEWVSVIYSGGSTFYSDSVKGRFTISRHNSKNTLYLQMNSLRAEDTAVYYCARARGDAFDIWGQGTMVTVSS
VL: not shown
B5: mAb10936 (antibody, V domains shown)
VH: QVQLVESGGGVVQPGRSLRLSCAASGFTFRNYGMHWVRQAPGKGLEWVSVIWYDGSNRYYADSVKGRFTISRDTSKNTLYLQMNSLRAEDTAVYYCARDPPITGTTGGDAFDIWGQGTMVTVSS
VL: not shown
B6: mAb10913 (antibody, V domains shown)
VH: EVQLVESGGGLVQPGGSLRLSCAASGFTFRNYEMNWVRQAPGKGLEWVSYITSSGSTMYYADSVKGRFTISRDNAKNSLYLQMNSLRAEDTAVYYCARDGFYYYYAMDVWGQGTTVTVSS
VL: QSVLTQPPSVSAAPGQKVTISCSGSSSNIGNNYVSWYQQLPGTAPKLLIYDNNKRPSGIPDRFSGSKSGTSATLGITGLQTGDEADYYCGTWDSSLSVGRVFGTGTKVTVLG
B7: mAb10934 (antibody, V domains shown)
VH: not shown
VL: DIQMTQSPSSLSASVGDRVTITCQASQDIWNYINWYQQKPGKAPKLLIYDASNLKTGVPSRFSGSGSGTDFTFTISSLQPEDIATYYCQQHDDLPPTFGQGTKVEIKR
B8: mAb10938 (antibody, V domains shown)
VH: EVQLVESGGGLVQPGGSLRLSCAVSGFTVSSNYMSWVRQAPGKGLEWVSLIYSGGSTFYADSVKGRFTISRHNSKNTLYLQMNSLRAEDTAVYYCAREGGYSYDYNYWGQGTLVTVSS
VL: B7 VL with W30R, I33L, K55E, S65I, H91Y, D93N, P96I, K103R, V104L
B9: mAb10935 (antibody, V domains shown)
VH: EVQLVESGGGLVQPGGSLRLSCAASGFTVSSNYMSWVRQAPGKGLEWVSLIYSGGSTYYADSVKGRFTISRHNSKNTLYLQMNSLRSEDTAVYYCARVPLGDYYYGMDVWGQGTTVTVSS
VL: B7 VL with W30N, N31K, I33L, K55E, H91S, D93N, P96L, Q100G
B10: mAb10921 (antibody, V domains shown)
VH: EVQLVESGGGLVQPGGSLRLSCAASGITVSSNYMSWVRQAPGKGLEWVSVIYSGGSTFYADSVKGRFTISRHNSKNTLYLQMNSLRAEDTAVYYCARERNFDAFDIWGQGTMVTVSS
VL: DIQMTQSPSSVSASVGDRVTITCRASQGISSWLAWYQQKPGKAPKLLIYAASSLQSGVPSRFSGSGSGTDFTLTISSLQPEDFATYYCQQANSFPLFTFGPGTKVDIKR
B11: mAb10930 (antibody, V domains shown)
VH: EVQLVESGGGLVQPGRSLRLSCAASGFTFDDYAMYWVRQAPGKGLEWVSGISWNSGSIGYADSVKGRFTISRDNAKNSLYLQMNSLRAADTALYYCAKDKDWNSRGYYYYGMDVWGQGTTVTVSS
VL: not shown
B12: mAb10937 (antibody, V domains shown)
VH: QITLKESGPTLVKPTQTLTLTCTFSGFSLSTNVVGVGWIRQPPGKALEWLALIYWNDDKRYSPSLKSRLTITKDTSKNQVVLTMTNMDPVDTATYYCAHGPTGDYFDYWGQGTLVTVSS
VL: not shown
B13: mAb10989 (antibody, V domains shown)
VH: QVQLVQSGAEVKKPGASVKVSCKASGYIFTGYYMHWVRQAPGQGLEWMGWINPNSGGANYAQKFQGRVTLTRDTSITTVYMELSRLRFDDTAVYYCARGSRYDWNQNNWFDPWGQGTLVTVSS
VL: QSALTQPASVSGSPGQSITISCTGTSSDVGTYNYVSWYQQHPGKAPKLMIFDVSNRPSGVSDRFSGSKSGNTASLTISGLQAEDEADYYCSSFTTSSTVVFGGGTKLTVLG
B14: mAb10920 (antibody, V domains shown)
VH: QVQLVESGGGVVQPGRSLRLSCAASGFTFSYYGMHWVRQAPGKGLEWVAVIWYDGSNKFYADSVKGRFTISRDNSKNTLYLQMNSLRAEDTAVYYCAAARPGYYYGMDVWGQGTTVTVSS
VL: DIQMTQSPSSLSASVGDRVTITCRASQGISNYLAWFQQKPGKAPNSLIYAASSLQRGVPSKFSGSGSGTDFTLTISSLQPEDFATYYCQQYNSYPRTFGQGTKVEIKR
B15: mAb10982 (antibody, V domains shown)
VH: EVQLVESGGGLVQPGGSLRLSCAASGLTVSSNYMSWVRQAPGKGLEWVSVIYSGGTTYYADSVKGRFTISRHNSKNTLSLQMNSLRAEDTAVYYCARGEGANYYGMDVWGQGTTVTVSS
VL: QSVLTQPPSVSGAPGQRVTISCTGSSSNIGTGYDVHWYQQLPGTAPKLLIYGNSNRPSGVPDRFSGSKSGTSASLAITGLQAEDEADYYCQSYDSSLSGYVVFGGGTKLTVLG
B16: mAb10985 (antibody, V domains shown)
VH: EVQLVESGGGLVQPGRSLRLSCAASGFTFDDYAMHWVRQAPGKGLEWVSGISWNRGSIGYADSVKGRFTISRDNAKNSLYLQMSSLRAEDTALYYCAKDGERWDSVVVPSARNGMDVWGQGTTVTVSS
VL: B15 VL with T31A, Y100S, V101Y, G105T, L109V
B17: mAb10986 (antibody, V domains shown)
VH: EVQLVESGGGLVQPGGSLRLSCAASEFTVSSNYMSWVRQAPGKGLEWVSVIYSGGSTFYADSVKGRFTISRDNSKNTLYLQMNSLRAEDTAVYYCARALPYGDLHFDYWGQGTLVTVSS
VL: B15 VL with S54T, G99D, Y100S, V101Y, G105T, L109V

These binders were tested against SARS-COV-2 RBD extracellular domain expressed with a C-terminal mouse IgG2a (SARS-CoV-2).

Binder | Kd [nM] | koff [s⁻¹] | kon [M⁻¹ s⁻¹] | t½ [h]
B1 | 0.0435 | 2.83e-05 | 651000 | 6.79
B2 | ≤ 0.0249 | – | – | ≥ 19.2
B3 | 0.0387 | 1.15e-05 | 299000 | 16.7
B4 | ≤ 0.0413 | ≤ 1e-05 | 242000 | ≥ 19.2
B5 | ≤ 0.0153 | ≤ 1e-05 | 652000 | ≥ 19.2
B6 | 0.244 | 0.000152 | 623000 | 1.27
B7 | 0.0832 | – | – | 1.64
B8 | ≤ 0.0322 | – | – | ≥ 19.2
B9 | ≤ 0.0261 | ≤ 1e-05 | 383000 | ≥ 19.2
B10 | ≤ 0.0375 | ≤ 1e-05 | – | ≥ 19.2
B11 | ≤ 0.0431 | ≤ 1e-05 | 232000 | ≥ 19.2
B12 | 0.114 | 7.28e-05 | 639000 | 2.64
B13 | – | – | – | 2.07
B14 | 0.416 | – | – | 0.658
B15 | 0.0544 | 1.69e-05 | 310000 | 11.4
B16 | 0.0117 | – | – | 15.2
B17 | ≤ 0.0158 | – | – | ≥ 19.2
